# Reference: patent publication US20250145697A1 (WASHINGTON UNIVERSITY, published 2025)
# T1: murine ApoE (mouse, UniProt P08226 19-311)
# T1 sequence (looked up): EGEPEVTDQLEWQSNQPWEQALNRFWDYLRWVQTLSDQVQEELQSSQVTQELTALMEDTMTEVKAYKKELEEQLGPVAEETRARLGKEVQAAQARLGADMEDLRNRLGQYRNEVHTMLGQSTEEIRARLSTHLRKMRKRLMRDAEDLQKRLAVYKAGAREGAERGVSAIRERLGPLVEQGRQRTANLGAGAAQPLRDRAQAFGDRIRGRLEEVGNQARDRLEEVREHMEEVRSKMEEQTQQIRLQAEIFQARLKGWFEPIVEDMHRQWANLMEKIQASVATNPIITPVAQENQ
# T2: ApoE4 amino acids 24-125, expressed on yeast (human, UniProt P02649 42-143)
# T2 construct: with myc tag, on yeast cells; range counts on the mature protein; also called helix1 + 2 + 3
# T2 chain: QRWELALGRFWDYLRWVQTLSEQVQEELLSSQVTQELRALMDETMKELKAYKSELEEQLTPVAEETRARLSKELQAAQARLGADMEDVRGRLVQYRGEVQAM
# T3: ApoE4 amino acids 1-132, expressed on yeast (human, UniProt P02649 19-150)
# T3 construct: with myc tag, on yeast cells; range counts on the mature protein; also called up to helix 3; not shown: myc tag and yeast surface-display partner
# T3 chain: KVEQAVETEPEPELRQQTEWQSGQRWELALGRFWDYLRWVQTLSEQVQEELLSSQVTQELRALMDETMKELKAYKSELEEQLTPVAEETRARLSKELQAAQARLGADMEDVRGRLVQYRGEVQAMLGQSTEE
# Tests used:
# [1] = molecular target: T4, recombinant alipidated human ApoE4 (human, UniProt P02649 19-317); test: SPR, biotinylated recombinant apoE4 captured on a streptavidin chip; column Kd (1/s)
# T4 construct: mature; full length recombinant protein made in E. coli or bought; biotinylated for SPR; position 112 is counted on the mature protein, not on the precursor entry; also called recApoE; non-lipidated ApoE4
# T4 sequence (P02649 19-317 C130R): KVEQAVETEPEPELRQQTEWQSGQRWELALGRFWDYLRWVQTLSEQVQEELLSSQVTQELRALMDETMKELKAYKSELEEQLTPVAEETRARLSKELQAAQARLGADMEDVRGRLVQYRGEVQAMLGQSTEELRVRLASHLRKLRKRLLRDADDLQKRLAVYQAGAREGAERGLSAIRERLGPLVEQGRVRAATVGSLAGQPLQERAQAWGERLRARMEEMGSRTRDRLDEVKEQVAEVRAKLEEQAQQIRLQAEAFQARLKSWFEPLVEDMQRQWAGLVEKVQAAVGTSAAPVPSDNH
# Protocol: (§1) ELISA plates were coated with 0.5 μg/ml of recombinant apoE2 (square), apoE3 (open circle), or apoE4 (closed circle). Then different concentrations of (A) HJ151, (B) HJ153, (C) HJ154, or (D) HJ156 were loaded on the plates. Horse-radish peroxidase labeled goat anti-mouse secondary antibodies were used to detect binding. […] HJ151 is specific for ApoE4 and HJ156 binds only ApoE3 and ApoE4. FIG. 5E-H are graphs depicting surface plasmon resonance profiles for various antibodies. Anti-ApoE antibodies were serially diluted 3-fold (starting at 100 nM for HJ153 (E), and 1000 nM for HJ151 (F), and […] (G)) for detection of binding to biotinylated-recombinant apoE4 captured on a streptavidin chip. Samples were injected at a flow rate of 30 μl/minute. (H) Apparent KD values of HJ151, HJ153 and HJ156 were calculated based on the SPR experiment.
# (§2) ELISA plates were coated with 0.5 μg/ml of recombinant apoE2, apoE3, or apoE4. Then different concentrations of HJ151 (FIG. 5A), HJ153 (FIG. 5B), HJ154 (FIG. 5C), or HJ156 (FIG. 5D) were loaded on the plates. Horse-radish peroxidase labeled goat anti-mouse secondary antibodies were used to detect binding. […] HJ151 is specific for ApoE4 and HJ156 binds only ApoE3 and ApoE4. Surface plasmon resonance profiles for various antibodies was also performed.
# murine ApoE = molecular target: T1, murine ApoE; test: not described
# [2] = molecular target: T4, recombinant alipidated human ApoE4; test: SPR, biotinylated recombinant apoE4 captured on a streptavidin chip; column Apparent KD (M)
# Protocol: as §1, §2
# [3] = molecular target: T5, heat-induced aggregates of ApoE4 (human, UniProt P02649 19-317); test: ELISA: pellet of heat-aggregated ApoE4 coated at 0.5 ug/ml, antibody titrated, HRP goat anti-mouse IgG, OD650
# T5 construct: mature; aggregated state of the recombinant protein; also called ApoE4 incubated at 40 C for 24 hr; heat-treated ApoE4
# Protocol: (§3) The aggregated ApoE was induced by incubating ApoE at 1 mg/ml concentration at 40° C. for 24 hours. The aggregates then were recovered in the pellet fraction following ultracentrifugation at 186,000 g for 1 hour. For ELISA, the untreated ApoE or heat-induced aggregates of ApoE were coated directly to ELISA plates at 0.5 μg/ml overnight at 4° C. After three washes with PBS, the wells were blocked with 1% BSA-PBS for 1 hour at room temperature with shaking at 500 rpm. The blocked wells were washed once with PBS and subsequently loaded with antibodies at serial concentrations (starting at 100 nM with 5-fold dilutions thereafter). Bound antibodies were detected with HRP-labeled goat anti-mouse IgG (Jackson Immunoresearch) and visualized with TMB substrate at OD₆₅₀ (reaction stopped with BioFX stop solution).
# [4] = molecular target: T4, recombinant alipidated human ApoE4; test: SPR, biotinylated recombinant apoE4 captured on a streptavidin chip; column Ka (1/Ms)
# Protocol: as §1, §2
# [5] = molecular target: T2, ApoE4 amino acids 24-125, expressed on …; test: yeast display of myc-tagged ApoE4 fragment, antibody staining
# [6] = molecular target: T3, ApoE4 amino acids 1-132, expressed on …; test: as above
# [7] = molecular target: T6, heat-induced aggregates of ApoE3 (human, UniProt P02649 19-317); test: ELISA: pellet of heat-aggregated ApoE3 coated at 0.5 ug/ml, antibody titrated, HRP goat anti-mouse IgG, OD650
# T6 construct: mature; aggregated state of the recombinant protein; also called heat treated ApoE3
# T6 sequence (P02649 19-317): as the sequence (P02649 19-317 C130R) above, with R112C counted along it
# Protocol: as §3
# [8] = molecular target: T7, recombinant alipidated human ApoE3 (human, UniProt P02649 19-317); test: direct ELISA on coated recombinant alipidated ApoE (0.5 ug/ml)
# T7 construct: mature; full length recombinant protein made in E. coli or bought
# T7 sequence (P02649 19-317): as the sequence (P02649 19-317 C130R) above, with R112C counted along it
# How it was run: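 Plates coated overnight with full-length recombinant alipidated ApoE (0.5 μg/ml), from E. coli or a commercial source, were washed, blocked and incubated with anti-ApoE antibody. Binding was detected with goat anti-mouse IgG-HRP to generate dose-response curves.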
koff [1] [s⁻¹],binding result (murine ApoE),Kd [2] [nM],EC50 (read off the curve) [3] [nM],kon [4] [M⁻¹ s⁻¹],binding result [5],binding result [6],EC50 (read off the curve) [7] [nM],EC50 [8] [nM],Binder
0.00119,no binding,60.2,~0.3,19700,binds,binds,,,"HJ151 (antibody, V domains shown, murine monoclonal antibody from hybridoma; also called HJ151B (biotinylated)) VH: QVQLQQSGAELVRPGASVTLSCKASGYTFTDYEMHWVKQTPVHGLEWIGVIDPEKGGTAYNQKFKGKAILTADKSSSTAYMDLRSLTSEDSAVYYCLKDSWGQGTTLTVSS VL: DVLMTQTPLSLPVSLGDQASISCRSSQTIVHSDGNTYLEWYLQKPGQSPKLLIYKVSNRFSGVPDRFSGSGSGTYFTLKISRVEAEDLGVYYCFQGSHVPCTFGGGTKLEIKR"
0.00523,no binding,198,~0.07,26400,,,~0.09,1.69,"HJ156 (antibody, V domains shown, murine monoclonal antibody from hybridoma; also called HJ156B (biotinylated)) VH: QVQLQQSGPELVKPGASVKISCKASGYIFTDYYINWVKRRPGQGLEWIGWIFPGSGVSYYNEQFKGKATLTVDKPSNTAYIFLSRLTSEDSAVYFCARYYSSSPFAYWGQGTLVTVSA VL: DVLMTQTPLSLPVSLGDQASISCRSSQNIIHSNGNTYLEWFLQRPGQSPELLIYKVSNRFSGVPDRFSGSGSGTDFTLKISRVEAEDLGVYYCFQGSHVPYTFGGGTKLEIKR"
,,,~0.3,,binds,binds,0.16 to 0.2,0.24,"HJ154 (antibody, V domains shown, murine monoclonal antibody from hybridoma; also called HJ154B (biotinylated)) VH: QVQLQQPGTEFVMSGASVMLSCKASGYIFTNYWLHWVKQRPGHGLEWIGEIDPSDSYSICNDNFKGKSTLTVDKSSSTAYMQLSSLTSEDSAVYYCAGSLGRVGLAYWGQGTLVTVST VL: QIVLTQSPAIMSASPGEKVTMSCSASSSVSNMYWYQQKPGSSPKSWIYRTSNLASGVPARFSGSGSGTSYSLTISNMEAEDAATYYCQHYQNYPLTFGAGTKLELKR"
